Test results reported in US10815297B2, “Antagonists of IL17C for the treatment of inflammatory disorders” (MorphoSys AG, priority 2011, dated 2020).

Legend:
[1] = tested on: BALB/c female mice, LPS-induced acute lung neutrophilia; test: Intranasal instillation of LPS, mouse model of acute lung neutrophilia; assay type: in vivo; conditions: single treatment 5 mg/kg i.p. 24 hours before LPS instillation; BAL 24 hours after LPS
Procedure: Two independent studies were conducted with one negative mAb and two positive mAbs in the intranasal instillation of Lipopolysaccharide (LPS) mouse model of acute lung neutrophilia, a model which mimics some relevant aspects of COPD (Chronic Obstructive Pulmonary Disease). The effects were measured by Broncho Alveolar Lavage (BAL) inflammatory cell counting.
Several groups of mice were treated with different antibodies and Dexamethasone and compared to the mice subjected to LPS only.
BALB/c female mice from Harlan (France) were used in the study. Mice weight was around 20 g.
Mice were anesthetized by isoflurane inhalation. During the breathing, LPS was instilled intranasally. After 24 h, mice were anesthetized intra-peritoneally (IP) and Broncho Alveolar Lavage procedure was performed. Mice were anesthetized by injection of anaesthetic solution of 0.1 mL per 10 g of the mouse weight. The anaesthetic solution was composed of 18 ml 0.9% NaCl, 0.5 mL xylazine (5 mg/Kg) and 1.5 mL ketamine (75 mg/Kg).
The trachea was exposed through midline incision and canulated (with a mice catheter). BAL was performed twice using 1 mL of sterile PBS buffer. […] The cells were counted using a cell counter (Vet abc, France). […]
For all groups, BAL was performed 24 hours after LPS administration and cell counts were measured.
The results were analyzed using Student t-test. […]

[2] = tested on: TS-exposed mice (C57BL/6J), pulmonary inflammation; test: Tobacco smoke model, cells recovered in bronchoalveolar lavage; assay type: in vivo, mouse
Procedure: The response consisted of significant increases in the numbers of macrophages, epithelial cells, neutrophils and lymphocytes recovered in BAL.
Vehicle (PBS), MOR12743 and MOR03207 were administered i.p., 1 h prior to TS-exposure on days 1, 4, 7 and 10 of the study. Roflumilast was administered p.o., 1 h prior to each TS-exposure.
In this exposure protocol, mice were exposed in groups of 5 in clear polycarbonate chambers (27 cm×16 cm×12 cm). The TS from ‘Marlboro 100’ cigarettes was allowed to enter the exposure chambers at a flow rate of 100 mL/min. In order to minimise any potential problems caused by repeated exposure to a high level of TS, the exposure period to TS was increased initially from 25 minutes at the start of the study (day 1) to a maximum of 45 minutes on day 3. The exposure schedule used in this study was as follows:
The trachea was cannulated using a 10 mm long Luer fitting stainless steel cannula. Phosphate buffered saline (PBS) was used as the lavage fluid. A volume of 0.4 mL was gently instilled and withdrawn 3 times using a 1 mL syringe and then placed in an Eppendorf tube and kept on ice prior to subsequent determinations.
Lavage fluid was separated from cells by centrifugation (6 min at 3400 rpm, RCF=3070×g—‘Eppendorf Mini Spin’) and the supernatant decanted and frozen for possible subsequent analysis. The cell pellet was re-suspended in a known volume of PBS and total cell numbers calculated by counting a stained (Turks stain) aliquot under a microscope using a haemocytometer.
The residual cell pellet was diluted to approximately 10^5 cells per mL. A volume of 500 μl was placed in the funnel of a cytospin slide and centrifuged for 8 min at 800 rpm, RCF=72.26×g (Shandon Cytospin 3). The slide was air-dried and stained using Wrights/Giemsa stain as per the proprietary instructions. When dried and cover-slipped, differential cell-counts were performed using light microscopy. Approximately 400 cells were counted for each slide. Cells were identified using standard morphometric techniques.
In this study, 4 groups of mice were subjected to daily TS-exposure for 11 days and were sacrificed on the 12th day, 24 h after the final TS-exposure. Three groups received either vehicle (D-PBS), MOR12743 or MOR03207, i.p., 1 h prior to TS-exposure on days 1, 4, 7 and 10 of the study. One group received Roflumilast, p.o., 1 h prior to each TS-exposure. A further group was exposed to air for 11 consecutive days and sacrificed on the 12th day, 24 h after the final air-exposure. This group received vehicle (D-PBS), i.p., 1 h prior to exposure on days 1, 4, 7 and 10 of the study. For all groups n=10.
All mice were killed on day 12, by intra-peritoneal barbiturate anaesthetic overdose, 24 h after final exposure to air or TS. A blood sample was taken over heparin from the sub-clavian vein and the plasma separated by centrifugation and stored at −40° C. A BAL was performed using 0.4 mL of phosphate buffered saline (PBS). Cells recovered from the BAL were used for the total cell and differential cell counts. The BAL supernatants and remaining cell pellet were stored at −40° C. and −80° C. respectively for possible future analysis. Following BAL, the cannula was left tied in place. The heart and lungs were removed after gently opening the thorax and cutting down either side of the sternum and ribs. The left lobe was tied off, removed, snap-frozen and stored at −80° C. The right lobe was inflated with 10% phosphate buffered formalin (PBF) to a pressure of 18 cm of PBF for 20 minutes. The trachea was then ligated below the cannula and the cannula removed. The heart, lung & trachea were immersed in PBF.
The data were therefore initially subjected to a one-way analysis of variance test (ANOVA), followed by a Bonferroni correction for multiple comparisons in order to test for statistically significant differences between treatment groups. A “p” value of <0.05 was considered to be statistically significant. […]

[3] = 5 mg/kg i.p. on days 1, 4, 7 & 10

B1: MOR12743: anti-mouse IL17C HuCAL antibody; CDRs SEQ ID NO: 31-36, VL 37, VH 38; human/mouse chimeric IgG2a (antibody, V domains shown)
VH: QVQLVQSGAEVKKPGASVKVSCKASGYTFTSNFIHWVRQAPGQGLEWMGWISPYNGDTNYAQKFQGRVTMTRDTSISTAYMELSRLRSEDTAVYYCARESVYYGSDYGYNGMDIWGQGTLVTVSS
VL: DIELTQPPSVSVSPGQTASITCSGDNLGEEYVSWYQQKPGQAPVLVIYDDTKRPSGIPERFSGSNSGNTATLTISGTQAEDEADYYCASWDLWSVEVFGGGTKLTVLGQ
modifications: mouse IgG2a constant regions; VH; VL
[1]
  inhibition of the recruitment of inflammatory cells into the BALF: inhibited significantly
[2]; [3]
  Inhibition of epithelial cells in BAL: 52%
  Inhibition of lymphocytes in BAL: 24%
  Inhibition of macrophages in BAL: 6%
  Inhibition of neutrophils in BAL: 48%
[2]; 5 mg/kg i.p. on days 1, 4, 7 & 10, 1 h prior to TS-exposure, BAL 24 h after last of 11 daily exposures
  Inhibition of total cells in BAL: 26%
